Laboratory results taken from PMC5004352.

Target: SoPIP2;1 wild type (Spinacia oleracea)
Assay: SDS-PAGE (SDS-resistant oligomers); purified protein mixed with SDS sample loading buffer (125 mM Tris-HCl pH 6.8, 20% glycerol, 4% SDS), 10 min at room temperature, 12% gel, Coomassie; WT also pre-incubated with DTT or β-mercaptoethanol for varying times; WT against mutants with 10% β-mercaptoethanol in the loading buffer; monomer to dimer

stoichiometry N: 2
Substance: SoPIP2;1 wild type (natural protein)
